Laboratory results taken from patent US20060116325A1, “Methods and compositions for inhibiting hiv-coreceptor interactions” (priority 2001, published 2006).
“Also recorded” adds a separate entry of the source.

Columns and labels:
CXCR4 [1] = target: T1, CXCR4 (Homo sapiens, UniProt P61073); assay: Competition with 125I-SDF-1α binding to CEMx174 cells; set-up: host or cells: CEMx174 (174xCEM); conditions: room temperature, 0.1% sodium azide, FIG. 7B, 7C
Procedure: FIGS. 7A through 7C depicts the inhibition of chemokine receptor ligand binding by peptide pre-treatment. FIG. 7A. Effect of pre-treatment with peptides 15K and 15D on the binding of MIP-1β to SupT1/CCR5 cells; FIG. 7B. Effect of pre-treatment with peptides 15K and 1SD on the binding of SDF-1α to CEMx174 cells; and FIG. 7C. Effect of pre-treatment with 15K and control peptide 15GIG on the binding of SDF-1α to CEmx174 cells. Binding studies were performed as described in Materials and Methods.
Binding assays were performed with HEK-CCR5 or HEK CXCR4 in triplicate by adding unlabeled competitor (anti-coreceptor binding peptide or control chemokine) and radiolabeled chemokine, 0.2 ng/ml (^125I-MIP-1β or SDF-1α, specific activity 2000 Ci/mmol, NEN Life Science Products) to a cell suspension (4×10^5 cells in 200 μl) in RPMI 1640 supplemented with 1% bovine serum albumin and 25 mM HEPES pH 8.0 (binding medium). Cells were then incubated at 22° C. for 40 min with continuous rotation. After incubation cells were transferred to the tubes containing 800 μl of 10% sucrose in PBS and harvested by centrifugation. The supernatant was aspirated and the cell-associated radioactivity was measured using a 1272 Wallac gamma counter. Binding assays were performed with the 174xCEM and Sup-T1 cells expressing CCR5 in duplicates by adding unlabeled competitor (peptide or control chemokine) and radiolabeled chemokine, 0.2 ng/ml (^125I-MIP-1β or ^125I-SDF-1α, specific activity 2000 Ci/mmol, NEN life Science Products) to 300 μl cell suspension (4×10^6 cells/ml) in RPMI 1640 supplemented with 1% bovine serum albumin, 0.1% sodium azide and 25 mM HEPES pH 8.0 (binding medium). Cells were then incubated at 22° C. for 30 min with continuous rotation. After incubation cells were transferred to the tubes containing 800 μl of 10% sucrose in PBS and harvested by centrifugation, the supematant was aspirated and the cell-associated radioactivity was measured using a 1272 Wallac gamma counter. The data were analyzed by nonlinear regression using the computer program GraphPad Prizm 3.0. […]

CXCR4 [2] = target: T1, CXCR4; assay: Binding of anti-CXCR4 antibody 12G5 to CEMx174 cells (flow cytometry); set-up: host or cells: CEMx174 (174xCEM); conditions: CEMx174 cells, preincubation 60 min 22° C.; FIG. 5
Procedure: FIG. 5A. Dose dependent effect of peptide 15K in comparison with SDF-1α. FIG. 5B. The comparison of the effects of 15K and 15D. FIG. 5C. The comparison of the effects of 15K and 15KS. Cells were preincubated at 22° C. with peptides at designated concentrations of SDF-1α for 60 min. Then cells were incubated with FITC-labeled anti-human CXCR4 monoclonal antibodies 12G5 for 40 min at 22° C. and washed with FACS buffer prior to flow cytometry.
CEMx174 cells were pelleted and resuspended at 10^6 cells/ml in PBS containing 1% BSA and 0.1% sodium azide (FACS buffer). Cells were then preincubated with designated concentrations of peptides or SDF-1-α (1 μg/ml) at 22° C. for 60 min. FITC-labeled anti-human CXCR4 antibody (clone 12G5, BD PharMingen, San Diego, Calif.) was added to the cells per the manufactures instructions and further incubated at 22° C. for 40 minutes. Cells were extensively washed with FACS buffer and analyzed using a FACS Calibur flowcytometer (Becton Dickinson). HEK/CCR5 cells were suspended in Dulbecco's PBS containing 1% FCS and 0.05% NaN3 (10^4 cells in 100 μl) and incubated with or without 5 μg of MIP-1β (PeproTech, Rocky Hill, N.J.), 0.1 mM peptide 15D or 15K for 45 min at 22° C. Cells were then treated with FITC-conjugated anti-human CCR5 antibody (2D7; BD PharMingen, San Diego, Calif.), and incubated for 30 min at 22° C. Cells were washed twice, and analyzed using a FACScan flow cytometer (Becton Dickinson Immunocytometry Systems, San Jose, Calif.).
To determine if peptides 15D and 15K interact directly with chemokine receptors the effect of these and control peptides on the binding of anti-chemokine receptor antibodies to CXCR4 and CCR5 was studied. The monoclonal antibody 12G5 recognizes a conformational extracellular epitope on CXCR4. This antibody blocks the infectivity of some X4 strains of HIV-1 and HIV-2 (Endres et al., Cell 87:745-756, 1996; Hoxie et al., J. Reprod. Immunol. 41:197-211(1998); McKnight et al., J. Virol. 74:1692-1696(1997), 19, 26). […] Further, the binding of 12G5 to CXCR4 receptor-expressing cells is prevented by anti-HIV compounds. […] 73:2752-2761, 1999. To determine the importance of the particular amino acid sequence of the inhibitory activity of the peptides. The effects of peptide 15K and the corresponding scrambled peptide 15KS on binding of 12G5 to CXCR4 was compared. […] Apparently there is a direct correlation between the ability of 15K to inhibit the anti-CXCR4 antibody binding and its ability to inhibit HIV-1 infectivity since the scrambled peptide 15KS with the same amino acid comparison has reduced ability to manifest both these activities.

HIV-1IIIB = HIV-1IIIB infection of PBMC, p24 ELISA; format: cell-based; conditions: peptide 1 hr before HIV-1IIIB, p24 after 48 hr; FIG. 4
Procedure: Peripheral blood mononuclear cells were treated with designated concentrations of peptide for a period of 1 hr prior to addition of HIV-1IIIB. After 2 hr, cells were washed, and viral replication was determined after 48 hr by analysis of p24 levels. Results are representative of 4 independent experiments.
PBMCs were obtained from whole blood of normal donors and isolated by Ficoll-Paque Plus (Pharmacia Biotech, Piscataway, N.J.) density gradient centrifugation, and plated at a cell density of 2×10^6 cells/ml. Monocyte-derived macrophages (MDM) were generated from adherent human peripheral blood mononuclear cells by culture for 7 days with M-CSF (100 ng/ml). Cultures were maintained in RPMI-1640 medium (Life Technologies, Rockville, Md.) supplemented with 10% heat-inactivated endotoxin-free FCS (Hyclone, Logan, Utah), 10 μg/ml gentamicin, and 1 mM glutamine. Cells were treated with designated concentrations of the exemplary peptides 15K or 15D, and after 1 hr cells were infected with HIV-1IIIB (T cell tropic) or HIV-1JRFL (monocyte tropic) at an multiplicity of infection (MOI) of 0.1. After 2 hr, cells were washed, and cultured for additional 48-72 hr, followed by analysis of HIV replication as determined by quantification of accumulated p24 in the supernatant. The production of p24 was determined by conventional sandwich ELISA, using ELISA plates pre-coated with capture anti-p24 antibodies provided by the AIDS Vaccine Program (SAIC Frederick, NCI-FCRDC, Frederick, Md.). The captured p24 antigen was detected using rabbit anti-HIV-1 anti-p24 antibody, and a secondary goat anti-rabbit IgG (peroxidase-labeled) antibody. The captured p24 protein was detected using a 3,3′,5,5′-tetramethylbenzidine and hydrogen peroxide detection system (KPL Laboratories, Gaithersburg, Md.). The reaction was read spectrophotometrically at 450 nm. No cytotoxicity was detectable following treatment of PBMC with the peptides even at a concentration of 100 μg/ml.
In view of the foregoing binding inhibition studies, and considering the homology between the 15K and 15D peptides and the CXCR4 ligand SDF-1α, it was further undertaken to determine the capacity of the synthetic peptides to inhibit CXCR4 co-receptor function. In particular, experiments were carried out to assess the ability of 15K or 15D to alter the infection of PBMCs with the T cell-tropic […] strain. […] Significant inhibition of HIV-1 infection was detected with concentrations of peptides as low as 10 ng/ml.

CXCR4 [3] = target: T1, CXCR4; assay: Ca2+ mobilization in THP-1 cells in response to SDF-1α (fura-2); format: cell-based; conditions: peptide 500 μM preincubated, SDF-1α 100 ng/ml, FIG. 6
Procedure: FIGS. 6A through 6D depict the effect of peptide pre-treatment on the mobilization of intracellular Ca^2+ in THP-1 cells in response to SDF-1α. Cells loaded with fura-2 were preincubated with peptide 15K (FIG. 6C), 15D (FIG. 6B) and 15CW (FIG. 6D) at a final concentration of 500 μM for 3 min prior to stimulation with SDF-1α (100 ng/ml).
THP-1 cells (12×10^6/ml in RPMI 1640 containing 10% FSB) were loaded in the presence of 5 μM fura-2 AM (Molecular Probes, Eugene, Oreg.) at 22° C. for 30 min in the dark. Subsequently, cells were washed three times and resuspended (10^6 cells/ml) in the buffer containing 138 mM sodium chloride, 6 mM potassium chloride, 1 mM calcium chloride, 1 mM magnesium chloride, 10 mM HEPES, pH 7.4,5 mM glucose, and 0.1% bovine serum albumin. 1.93 ml of loaded cells was transferred into a quartz cuvette. 50 μl of a peptide stock solution (2×10^−2 M) was added to the cells, and after 3 min of incubation 20 μl of human SDF-1α (10 μg/ml, PeproTech) was added to a stirred cuvette. The measurements were performed using luminescence spectrophotometer LS50 B (Perkin-Elmer). Ca^2+ mobilization in the cells in response to SDF-1α was measured by analysis of the ratio of fluorescence emitted at 510 nm after sequential excitation at 340 and 380 nm.
The increase of intracellular Ca^2+ concentration mediated by a chemokine receptor in response to a cognate chemokine is a reliable assay for measurement of chemokine agonist activity. The human monocytic cell line THP-1 expresses a high level of CXCR4 and responds well to SDF-1α stimulation (FIG. 6A), so these cells were used to determine whether peptides 15D and 15K could block the activation of CXCR4.

T1 sequence (P61073 whole entry): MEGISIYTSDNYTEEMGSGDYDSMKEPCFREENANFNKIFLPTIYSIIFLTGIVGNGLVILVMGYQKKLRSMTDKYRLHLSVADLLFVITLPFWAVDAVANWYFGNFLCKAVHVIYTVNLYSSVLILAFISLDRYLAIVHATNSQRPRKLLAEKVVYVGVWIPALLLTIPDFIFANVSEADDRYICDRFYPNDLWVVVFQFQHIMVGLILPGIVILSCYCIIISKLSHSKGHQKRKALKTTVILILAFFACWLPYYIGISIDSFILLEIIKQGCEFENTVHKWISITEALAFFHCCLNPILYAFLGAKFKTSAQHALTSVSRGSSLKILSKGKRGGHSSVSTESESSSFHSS

With “G I G D P V T C L K S G A I A (GIGDPVTCLKSGAIA) [Peptide 15GIG, reference compound]” as the substance, how does the “inhibition of SDF-1α binding to CXCR4” value (CXCR4 [1]) read?
The value was “significantly lower competing activity”.

Which results are given for “K I N S W R A D N I H C K A R (KINSWRADNIHCKAR) [Peptide 15KS, reference compound]”?
inhibition of 12G5 antibody binding to CXCR4 (CXCR4 [2]): significantly less inhibitory activity; also recorded: a low level of inhibitory activity; inhibition of T cell-tropic HIV-1 infection of PBMCs (p24) (HIV-1IIIB): significantly less inhibition

With “I R K A H C W I D R A D N N S [Peptide 15CW, reference compound]” as the substance, how does the “inhibition of Ca2+ mobilization in response to SDF-1α” value (CXCR4 [3]) read?
The value was “less effective”.
